The text below walks through data of the supplement of paper PMC5998384.

Data set [1] deals with HeLa Kyoto. Put plainly: solubility in G1/S (NP-40 vs SDS abundance) (log2 ratio); higher = more soluble. The settings on record: cell cycle stage: G1/S.
In data set [2] the test system is HeLa Kyoto. Put plainly: melting temperature (median over replicates), in situ; higher = more thermally stable.
In data set [3] the test system is HeLa Kyoto. Put plainly: solubility change mitosis vs G1/S (difference of NP-40 vs SDS log2 ratios) (log2 ratio difference); higher = more soluble in mitosis.
Data set [4] concerns HeLa Kyoto. Put plainly: thermal stability score vs G1/S (z-score of summed log2 fold changes over temperatures); higher = more thermally stable than in G1/S.
Where [5] appears, read: cell cycle stage: early G1 (4.5 h after nocodazole release).
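Throughout, for melting temperature (median over replicates), in situ: HeLa Kyoto cells synchronized by double thymidine or nocodazole block, proteins quantified by TMT10plex mass spectrometry, three independent biological replicates.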
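Throughout, for solubility change mitosis vs G1/S (difference of NP-40 vs SDS log2 ratios): synchronized HeLa Kyoto cells (double thymidine block for G1/S, nocodazole release for mitosis), protein amounts in NP-40 versus SDS lysates quantified by mass spectrometry, three biological replicates.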
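Throughout, for solubility in G1/S (NP-40 vs SDS abundance): HeLa Kyoto cells arrested at G1/S by double thymidine block, proteins quantified by TMT10plex mass spectrometry in mild NP-40 versus SDS extracts, three biological replicates.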
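Throughout, for thermal stability score vs G1/S (z-score of summed log2 fold changes over temperatures): synchronized HeLa Kyoto cells, proteins quantified by TMT10plex mass spectrometry, three biological replicates, mitosis taken 0.5 h after nocodazole release, G1/S directly after double thymidine block.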

With “MAAMAPGGSGSGGGVNPFLSDSDEDDDEVAATEERRAVLRLGAGSGLDPGSAGSLSPQDPVALGSSARPGLPGEASAAAVALGGTGETPARLSIDAIAAQLLRDQYLLTALELHTELLESGRELPRLRDYFSNPGNFERQSGTPPGMGAPGVPGAAGVGGAGGREPSTASGGGQLNRAGSISTLDSLDFARYSDDGNRETDEKVAVLEFELRKAKETIQALRANLTKAAEHEVPLQERKNYKSSPEIQEPIKPLEKRALNFLVNEFLLKNNYKLTSITFSDENDDQDFELWDDVGLNIPKPPDLLQLYRDFGNHQVTGKDLVDVASGVEEDELEALTPIISNLPPTLETPQPAENSMLVQKLEDKISLLNSEKWSLMEQIRRLKSEMDFLKNEHFAIPAVCDSVQPPLDQLPHKDSEDSGQHPDVNSSDKGKNTDIHLSISDEADSTIPKENSPNSFPRREREGMPPSSLSSKKTVHFDKPNRKLSPAFHQALLSFCRMSADSRLGYEVSRIADSEKSVMLMLGRCLPHIVPNVLLAKREELIPLILCTACLHPEPKERDQLLHILFNLIKRPDDEQRQMILTGCVAFARHVGPTRVEAELLPQCWEQINHKYPERRLLVAESCGALAPYLPKEIRSSLVLSMLQQMLMEDKADLVREAVIKSLGIIMGYIDDPDKYHQGFELLLSALGDPSERVVSATHQVFLPAYAAWTTELGNLQSHLILTLLNKIEKLLREGEHGLDEHKLHMYLSALQSLIPSLFALVLQNAPFSSKAKLHGEVPQIEVTRFPRPMSPLQDVSTIIGSREQLAVLLQLYDYQLEQEGTTGWESLLWVVNQLLPQLIEIVGKINVTSTACVHEFSRFFWRLCRTFGKIFTNTKVKPQFQEILRLSEENIDSSAGNGVLTKATVPIYATGVLTCYIQEEDRKLLVGFLEDVMTLLSLSHAPLDSLKASFVELGANPAYHELLLTVLWYGVVHTSALVRCTAARMFELTLRGMSEALVDKRVAPALVTLSSDPEFSVRIATIPAFGTIMETVIQRELLERVKMQLASFLEDPQYQDQHSLHTEIIKTFGRVGPNAEPRFRDEFVIPHLHKLALVNNLQIVDSKRLDIATHLFEAYSALSCCFISEDLMVNHFLPGLRCLRTDMEHLSPEHEVILSSMIKECEQKVENKTVQEPQGSMSIAASLVSEDTKTKFLNKMGQLTTSGAMLANVFQRKK [KIAA1468]”, in data set [1], the “solubility in G1/S (log2)” value is -0.0233. Also, the melting temperature in data set [2] (cell cycle stage: G1/S) turned out to be 50.8 °C; in data set [2] (cell cycle stage: mitosis), 51.1 °C. Moreover, in data set [3], the “solubility change mitosis (log2)” value was -0.171. Also, the thermal stability score in data set [4] (setting [5]) is -0.253; in data set [4] (cell cycle stage: mitosis), -0.932.

Regarding “MAAPALRLCHIAFHVPAGQPLARNLQRLFGFQPLASREVDGWRQLALRSGDAVFLVNEGAGSGEPLYGLDPRHAVPSATNLCFDVADAGAATRELAALGCSVPVPPVRVRDAQGAATYAVVSSPAGILSLTLLERAGYRGPFLPGFRPVSSAPGPGWVSRVDHLTLACTPGSSPTLLRWFHDCLGFCHLPLSPGEDPELGLEMTAGFGLGGLRLTALQAQPGSIVPTLVLAESLPGATTRQDQVEQFLARHKGPGLQHVGLYTPNIVEATEGVATAGGQFLAPPGAYYQQPGKERQIRAAGHEPHLLARQGILLDGDKGKFLLQVFTKSLFTEDTFFLELIQRQGATGFGQGNIRALWQSVQEQSARSQEA [HPDL]”, the “solubility in G1/S (log2)” value in data set [1] was found to be 0.23. The melting temperature in data set [2] (cell cycle stage: G1/S) came out at 53.9 °C; in data set [2] (cell cycle stage: mitosis), 52.8 °C. Further, in data set [3], the “solubility change mitosis (log2)” value is -0.0348. The thermal stability score in data set [4] (setting [5]) was found to be 1.41; in data set [4] (cell cycle stage: mitosis), 0.476.

For the sequence “MAAPCEGQAFAVGVEKNWGAVVRSPEGTPQKIRQLIDEGIAPEEGGVDAKDTSATSQSVNGSPQAEQPSLESTSKEAFFSRVETFSSLKWAGKPFELSPLVCAKYGWVTVECDMLKCSSCQAFLCASLQPAFDFDRYKQRCAELKKALCTAHEKFCFWPDSPSPDRFGMLPLDEPAILVSEFLDRFQSLCHLDLQLPSLRPEDLKTMCLTEDKISLLLHLLEDELDHRTDERKTTIKLGSDIQVHVTACILSVCGWACSSSLESMQLSLITCSQCMRKVGLWGFQQIESSMTDLDASFGLTSSPIPGLEGRPERLPLVPESPRRMMTRSQDATFSPGSEQAEKSPGPIVSRTRSWDSSSPVDRPEPEAASPTTRTRPVTRSMGTGDTPGLEVPSSPLRKAKRARLCSSSSSDTSSRSFFDPTSQHRDWCPWVNITLGKESRENGGTEPDASAPAEPGWKAVLTILLAHKQSSQPAETDSMSLSEKSRKVFRIFRQWESLCSC [ZC3HC1]”, in data set [1], the “solubility in G1/S (log2)” value was 0.00532. The melting temperature in data set [2] (cell cycle stage: G1/S) stood at 49.3 °C; in data set [2] (cell cycle stage: mitosis) it was 49.2 °C. The “solubility change mitosis (log2)” value in data set [3] was -0.163. The results for the thermal stability score in data set [4] (setting [5]) and in data set [4] (cell cycle stage: mitosis) were 0.508 and 1.84, respectively.

Consider “MAAPDLSTNLQEEATCAICLDYFTDPVMTDCGHNFCRECIRRCWGQPEGPYACPECRELSPQRNLRPNRPLAKMAEMARRLHPPSPVPQGVCPAHREPLAAFCGDELRLLCAACERSGEHWAHRVRPLQDAAEDLKAKLEKSLEHLRKQMQDALLFQAQADETCVLWQKMVESQRQNVLGEFERLRRLLAEEEQQLLQRLEEEELEVLPRLREGAAHLGQQSAHLAELIAELEGRCQLPALGLLQDIKDALRRVQDVKLQPPEVVPMELRTVCRVPGLVETLRRFRGDVTLDPDTANPELILSEDRRSVQRGDLRQALPDSPERFDPGPCVLGQERFTSGRHYWEVEVGDRTSWALGVCRENVNRKEKGELSAGNGFWILVFLGSYYNSSERALAPLRDPPRRVGIFLDYEAGHLSFYSATDGSLLFIFPEIPFSGTLRPLFSPLSSSPTPMTICRPKGGSGDTLAPQ [TRIM11]”, for which the “solubility in G1/S (log2)” value in data set [1] was 0.185. The melting temperature stood at 50.8 °C in data set [2] (cell cycle stage: G1/S) and 49.4 °C in data set [2] (cell cycle stage: mitosis). Besides, in data set [3], the “solubility change mitosis (log2)” value is -0.192. Further, the thermal stability score was 0.605 in data set [4] (setting [5]) and 0.584 in data set [4] (cell cycle stage: mitosis).

Consider “MAAPEGSGLGEDARLDQETAQWLRWDKNSLTLEAVKRLIAEGNKEELRKCFGARMEFGTAGLRAAMGPGISRMNDLTIIQTTQGFCRYLEKQFSDLKQKGIVISFDARAHPSSGGSSRRFARLAATTFISQGIPVYLFSDITPTPFVPFTVSHLKLCAGIMITASHNPKQDNGYKVYWDNGAQIISPHDKGISQAIEENLEPWPQAWDDSLIDSSPLLHNPSASINNDYFEDLKKYCFHRSVNRETKVKFVHTSVHGVGHSFVQSAFKAFDLVPPEAVPEQKDPDPEFPTVKYPNPEEGKGVLTLSFALADKTKARIVLANDPDADRLAVAEKQDSGEWRVFSGNELGALLGWWLFTSWKEKNQDRSALKDTYMLSSTVSSKILRAIALKEGFHFEETLTGFKWMGNRAKQLIDQGKTVLFAFEEAIGYMCCPFVLDKDGVSAAVISAELASFLATKNLSLSQQLKAIYVEYGYHITKASYFICHDQETIKKLFENLRNYDGKNNYPKACGKFEISAIRDLTTGYDDSQPDKKAVLPTSKSSQMITFTFANGGVATMRTSGTEPKIKYYAELCAPPGNSDPEQLKKELNELVSAIEEHFFQPQKYNLQPKAD [PGM2]”, for which the “solubility in G1/S (log2)” value in data set [1] is 0.169. For the same sequence, the melting temperature is 59.1 °C in data set [2] (cell cycle stage: G1/S) and 58.5 °C in data set [2] (cell cycle stage: mitosis). Besides, in data set [3], the “solubility change mitosis (log2)” value was -0.112. Further, the figures for the thermal stability score in data set [4] (setting [5]) and in data set [4] (cell cycle stage: mitosis) were -0.0187 and -1.07, respectively.
